Results as given in the Immune Epitope Database (IEDB).
Each block holds one sequence with its values, some of them ahead of it.

Experiments:
HLA-B*15:17 = test: IEDB peptide-MHC binding, purified MHC/competitive/fluorescence; filed as Kd, often an IC50 or EC50 that approximates it; ≥ and ≤ were set here for values at or beyond the usual limits of such assays; conditions: source organism: Streptococcus pneumoniae TIGR4
HLA-A*24:03 [1] = test: as above; conditions: source organism: Streptococcus pneumoniae TIGR4
HLA-A*02:01 [2] = test: as above
HLA-B*51:01 = test: as above
HLA-A*29:02 = test: as above; conditions: source organism: Streptococcus pneumoniae TIGR4
HLA-B*18:01 = test: as above
HLA-B*46:01 = test: as above
HLA-A*23:01 [3] = test: as above; conditions: source organism: Streptococcus pneumoniae TIGR4
HLA-B*15:01 [4] = test: as above; conditions: source organism: Streptococcus pneumoniae TIGR4
HLA-A*03:01 [5] = test: as above; conditions: source organism: Streptococcus pneumoniae TIGR4
HLA-B*39:01 = test: as above
HLA-B*57:01 = test: as above
HLA-A*26:01 [6] = test: as above
HLA-B*27:03 = test: as above
HLA-A*69:01 [7] = test: as above
HLA-B*27:05 = test: IEDB peptide-MHC binding, purified MHC/direct/fluorescence; filed as Kd, often an IC50 or EC50 that approximates it; ≥ and ≤ were set here for values at or beyond the usual limits of such assays
HLA-B*07:02 = test: as above
HLA-B*44:02 = test: as above; conditions: source organism: Yersinia enterocolitica
HLA-A*30:01 = test: as above; conditions: source organism: Yersinia enterocolitica
HLA-C*14:02 = test: as above; conditions: source organism: Yersinia enterocolitica
HLA-A*02:01 [8] = test: as above
HLA-B*35:01 = test: as above
HLA-B*40:01 = test: as above
HLA-A*31:01 = test: as above
HLA-B*58:01 = test: as above
HLA-B*15:01 [9] = test: as above
HLA-B*08:01 = test: as above
HLA-A*11:01 = test: as above
HLA-A*03:01 [10] = test: as above
HLA-A*01:01 = test: as above
HLA-A*26:01 [11] = test: as above
HLA-A*69:01 [12] = test: as above
HLA-A*02:03 = test: as above; conditions: source organism: Choclo virus
HLA-A*24:03 [13] = test: as above
HLA-A*02:19 = test: as above; conditions: source organism: Choclo virus
HLA-A*23:01 [14] = test: as above; conditions: source organism: Choclo virus
HLA-A*02:11 = test: as above; conditions: source organism: Choclo virus
HLA-A*02:16 = test: as above; conditions: source organism: Choclo virus
HLA-A*02:12 = test: as above; conditions: source organism: Choclo virus
HLA-A*68:02 = test: as above; conditions: source organism: Choclo virus
HLA-B*08:02 = test: as above; conditions: source organism: Influenza A virus(A/swine/Shandong/fZC/2003(H9N2))
HLA-A*24:02 = test: as above; conditions: source organism: Influenza A virus (A/tiger/Thailand/CU-T4/04(H5N1))
[15] = source organism: Streptococcus pneumoniae TIGR4
[16] = source organism: Yersinia enterocolitica
[17] = source organism: Escherichia coli
[18] = source organism: Influenza A virus (A/tiger/Thailand/CU-T4/04(H5N1))
[19] = source organism: Influenza A virus (A/Puerto Rico/8/34/Mount Sinai(H1N1))
[20] = source organism: Haemophilus influenzae

Sequence: CLSDEINHV
Kd (HLA-B*15:17): ≥ 20 µM
Kd (HLA-A*24:03 [1]): ≥ 20 µM
Kd (HLA-A*02:01 [2]; [15]): 0.0109 µM
Kd (HLA-B*51:01; [15]): ≥ 20 µM
Kd (HLA-A*29:02): ≥ 20 µM
Kd (HLA-B*18:01; [15]): ≥ 20 µM
Kd (HLA-B*46:01; [15]): ≥ 20 µM
Kd (HLA-A*23:01 [3]): ≥ 20 µM
Kd (HLA-B*15:01 [4]): ≥ 20 µM
Kd (HLA-A*03:01 [5]): ≥ 20 µM
Kd (HLA-B*39:01; [15]): ≥ 20 µM
Kd (HLA-B*57:01; [15]): ≥ 20 µM
Kd (HLA-A*26:01 [6]; [15]): ≥ 20 µM
Kd (HLA-B*27:03; [15]): ≥ 20 µM
Kd (HLA-A*69:01 [7]; [15]): ≥ 20 µM

Sequence: YIFRNTINM
Kd (HLA-B*27:05; [16]): ≥ 20 µM
Kd (HLA-B*07:02; [16]): 7.86 µM
Kd (HLA-B*44:02): ≥ 20 µM
Kd (HLA-A*30:01): 1.79 µM
Kd (HLA-C*14:02): 0.12 µM
Kd (HLA-A*02:01 [8]; [16]): 0.222 µM
Kd (HLA-B*35:01; [16]): 0.0827 µM
Kd (HLA-B*40:01; [16]): ≥ 20 µM
Kd (HLA-A*31:01; [16]): ≥ 20 µM
Kd (HLA-B*58:01; [16]): 0.508 µM
Kd (HLA-B*15:01 [9]; [16]): 0.298 µM
Kd (HLA-B*08:01; [16]): ≥ 20 µM
Kd (HLA-A*11:01; [16]): 7.78 µM
Kd (HLA-A*03:01 [10]; [16]): ≥ 20 µM
Kd (HLA-A*01:01; [16]): ≥ 20 µM
Kd (HLA-A*26:01 [11]; [16]): 0.729 µM
Kd (HLA-A*69:01 [12]; [16]): 0.2 µM

Kd (HLA-B*27:05; [17]): ≥ 20 µM
Kd (HLA-B*07:02; [17]): ≥ 20 µM
Kd (HLA-A*02:01 [8]; [17]): ≥ 20 µM
Kd (HLA-B*35:01; [17]): 4.76 µM
Kd (HLA-B*40:01; [17]): 2.92 µM
Kd (HLA-A*31:01; [17]): ≥ 20 µM
Kd (HLA-B*58:01; [17]): ≥ 20 µM
Kd (HLA-B*15:01 [9]; [17]): ≥ 20 µM
Kd (HLA-B*08:01; [17]): ≥ 20 µM
Kd (HLA-A*11:01; [17]): ≥ 20 µM
Kd (HLA-A*03:01 [10]; [17]): ≥ 20 µM
Kd (HLA-A*01:01; [17]): ≥ 20 µM
Kd (HLA-A*26:01 [11]; [17]): ≥ 20 µM
Kd (HLA-A*69:01 [12]; [17]): ≥ 20 µM
Sequence: SHDTIGPYY

Sequence: KACDLAMCY
Kd (HLA-A*02:03): ≥ 20 µM
Kd (HLA-A*24:03 [13]; source organism: Choclo virus): ≥ 20 µM
Kd (HLA-A*02:19): ≥ 20 µM
Kd (HLA-A*23:01 [14]): ≥ 20 µM
Kd (HLA-A*02:11): ≥ 20 µM
Kd (HLA-A*02:16): ≥ 20 µM
Kd (HLA-A*02:12): ≥ 20 µM
Kd (HLA-A*01:01; source organism: Pergamino virus): 3.28 µM
Kd (HLA-A*68:02): ≥ 20 µM
Kd (HLA-A*02:01 [2]; source organism: Choclo virus): ≥ 20 µM
Kd (HLA-B*51:01; source organism: Choclo virus): ≥ 20 µM
Kd (HLA-B*18:01; source organism: Choclo virus): ≥ 20 µM
Kd (HLA-B*46:01; source organism: Choclo virus): ≥ 20 µM
Kd (HLA-B*39:01; source organism: Choclo virus): ≥ 20 µM
Kd (HLA-B*57:01; source organism: Choclo virus): ≥ 20 µM
Kd (HLA-A*26:01 [6]; source organism: Choclo virus): ≥ 20 µM
Kd (HLA-B*27:03; source organism: Choclo virus): ≥ 20 µM
Kd (HLA-A*69:01 [7]; source organism: Choclo virus): ≥ 20 µM

Sequence: FVRTLFQQM
Kd (HLA-B*27:05; [18]): ≥ 20 µM
Kd (HLA-B*07:02; [19]): 0.5 µM
Kd (HLA-A*02:01 [8]; [18]): ≥ 20 µM
Kd (HLA-B*35:01; source organism: Influenza A virus(A/swine/Shandong/fZC/2003(H9N2))): 0.297 µM
Kd (HLA-B*40:01; [18]): ≥ 20 µM
Kd (HLA-B*08:02): ≥ 20 µM
Kd (HLA-B*58:01; [18]): ≥ 20 µM
Kd (HLA-B*15:01 [9]; [19]): 5.96 µM
Kd (HLA-A*24:02): ≥ 20 µM
Kd (HLA-B*08:01; [19]): 0.188 µM
Kd (HLA-A*11:01; [18]): ≥ 20 µM
Kd (HLA-A*03:01 [10]; [18]): ≥ 20 µM
Kd (HLA-A*01:01; [18]): ≥ 20 µM
Kd (HLA-A*69:01 [12]; [18]): ≥ 20 µM
Kd (HLA-B*46:01; source organism: Influenza A virus H3N2): ≥ 20 µM

Kd (HLA-B*27:05; [20]): ≥ 20 µM
Kd (HLA-B*07:02; [20]): ≥ 20 µM
Kd (HLA-A*24:03 [13]; [20]): ≥ 20 µM
Kd (HLA-A*02:01 [8]; [20]): ≥ 20 µM
Kd (HLA-B*35:01; [20]): 0.0167 µM
Kd (HLA-B*40:01; [20]): ≥ 20 µM
Kd (HLA-A*31:01; [20]): ≥ 20 µM
Kd (HLA-B*58:01; [20]): ≥ 20 µM
Kd (HLA-B*15:01 [9]; [20]): 0.374 µM
Kd (HLA-B*08:01; [20]): ≥ 20 µM
Kd (HLA-A*11:01; [20]): ≥ 20 µM
Kd (HLA-A*03:01 [10]; [20]): ≥ 20 µM
Kd (HLA-A*01:01; [20]): 0.247 µM
Kd (HLA-A*26:01 [11]; [20]): ≥ 20 µM
Kd (HLA-A*69:01 [12]; [20]): ≥ 20 µM
Sequence: LAEQFSGEY
